According to patent publication US20250339569A1 (3B PHARMACEUTICALS, published 2025):
Starred links: 1 amine or outer side, 2 acyl side, 3 side chain; linkers in the order of their positions; H or OH if unused. Positions of bridges follow the written chain, without caps; N, C: chain ends. Non-standard residues stand in square brackets, D forms with d. Primed or numbered codes have the meaning given here. *: point of attachment. Af3(4SaPy2Ac) = 3-amino-L-phenylalanine, ring amine acylated with (4-sulfamoylpyrazol-1-yl)acetic acid, NS(=O)(=O)c1cnn(CC(=O)Nc2cccc(C[C@H](N[*:1])C(=O)[*:2])c2)c1; Af3(Hsfu) = 3-amino-L-phenylalanine, ring amine acylated with 4-sulfamoylfuran-2-carboxylic acid, NS(=O)(=O)c1coc(C(=O)Nc2cccc(C[C@H](N[*:1])C(=O)[*:2])c2)c1; Aph(SaPr)″ = 4-amino-L-phenylalanine, ring amine acylated with 3-sulfamoylpropanoic acid, NS(=O)(=O)CCC(=O)Nc1ccc(C[C@H](N[*:1])C(=O)[*:2])cc1; Aph(SaPr) = 4-amino-L-phenylalanine, ring amine acylated by 3-sulfamoylpropanoic acid, NS(=O)(=O)CCC(=O)Nc1ccc(C[C@H](N[*:1])C(=O)[*:2])cc1; Af3(HO-Succinyl) = 3-aminophenylalanine with succinyl (free acid) on the ring amine, O=C(CCC(=O)[*:3])Nc1cccc(C[C@H](N[*:1])C(=O)[*:2])c1; Af3(MSAc) = 3-aminophenylalanine with 2-methanesulfonylacetyl on the ring amine, CS(=O)(=O)CC(=O)Nc1cccc(C[C@H](N[*:1])C(=O)[*:2])c1; Af3(Iva) = 3-aminophenylalanine with isovaleryl on the ring amine, CC(C)CC(=O)Nc1cccc(C[C@H](N[*:1])C(=O)[*:2])c1; Af3(Prp) = 3-aminophenylalanine with propionyl on the ring amine, CCC(=O)Nc1cccc(C[C@H](N[*:1])C(=O)[*:2])c1; Phe(3-NHCO(CH2)3SO2NH2) = N[C@@H](Cc1cccc(NC(=O)CCCS(N)(=O)=O)c1)C(=O)O; APAc″ = 2-(4-(amino)piperidin-1-yl)acetic acid, NC1CCN(CC(=O)*)CC1; DOTA = O=C(O)CN1CCN(CC(=O)O)CCN(CC(=O)*)CCN(CC(=O)O)CC1; PPAc = 4-carboxymethyl piperazine linker; mXylylene = c1cc(C[*:1])cc(C[*:2])c1; 3Amb = NCc1cccc(C(=O)O)c1; 4Amb = NCc1ccc(C(=O)O)cc1; 4Amc = not defined here; Inp′ = not defined here; Cmp = not defined here; Dap = NC[C@H](N)C(=O)O

Tests used:
[1] = target: T1, Fc-fusion protein of human carbonic anhydrase IX (human, UniProt Q16790 38-414); assay: SPR, captured hCAIX-Fc; t1/2 category A: >15.0 min
Procedure: (§1) Stock solutions of test compounds were prepared by dissolving each compound in DMSO. DMSO stock solution were diluted 1:1000 in Running Buffer without DMSO. […] SPR binding analyses were performed in Single Cycle Kinetic (SCK) mode at 25° C.
(§2) For each test compound, SPR raw data in the form of resonance units (RU) were plotted as sensorgrams using the Biacore™ T200 control software. The signal from the blank sensorgram was subtracted from that of the test compound sensorgram (blank corrected). The blank corrected sensorgram was corrected for baseline drift by subtracting the sensorgram of a SCK run without the test compound (running buffer only). […] Raw data and fit results were imported as text files in IDBS. The pKD value (negative decadic logarithm of dissociation constant) was calculated in the IDBS excel template.

[2] = target: T1, Fc-fusion protein of human carbonic …; assay: SPR, captured hCAIX-Fc; pKD category A: >8.0
Procedure: as §1, §2

[3] = target: human carbonic anhydrase 9 (CAIX) (human, UniProt Q16790 38-459); assay: FACS competition on HT-29 cells, competitor tracer 3BP-2776; category A = pIC50 >8.0
Procedure: CAIX-expressing human HT-29 colorectal cancer cells (DSMZ, RRID: CVCL_0320) were cultured in McCoys's 5A modified medium (Biochrom, #F1015) including 10% fetal calf serum (FCS), 2 mM L-glutamine, 100 U/ml penicillin and 100 μg/mL streptomycin. Cells were detached with Accutase (Biolegend, #423201) and washed in FACS buffer (PBS including 1% FCS). Cells were diluted in FACS buffer to a final concentration of 500.000 cells per ml. 200 μL of the cell suspension were transferred to a u-shaped non-binding 96-well plate (Greiner) and cells were washed in ice-cold FACS buffer.
When biotinylated compounds were used an additional incubation step with 1 μg/mL APC-Streptavidin (Miltenyi; #130-106-791) in 50 μL FACS buffer for 30 minutes on ice was performed.
Cells were washed twice with ice-cold FACS buffer and analyzed in an Attune NxT flow cytometer (Thermo Fisher). Median fluorescence intensities (MFI) of the APC/Cy5-channel were calculated by Attune NxT software.

Binder	t1/2 (half-life of the complex, SPR) [1]	pKD [2]	pIC50 [3]
{DOTA-PPAc}-QCE[dP]D[Aph(SaPr)]LTWSC-NH2 (linker 2-11 via mXylylene) [3BP-4500]	> 15 min		
Ac-VYCE[dP]DWLTWSC-NH2 (linker 3-12 via mXylylene; SMILES CC(=O)N[C@H](C(=O)N[C@@H](Cc1ccc(O)cc1)C(=O)N[C@H]1CSCc2cccc(c2)CSC[C@@H](C(N)=O)NC(=O)[C@H](CO)NC(=O)[C@H](Cc2c[nH]c3ccccc23)NC(=O)[C@H]([C@@H](C)O)NC(=O)[C@H](CC(C)C)NC(=O)[C@H](Cc2c[nH]c3ccccc23)NC(=O)[C@H](CC(=O)O)NC(=O)[C@H]2CCCN2C(=O)[C@H](CCC(=O)O)NC1=O)C(C)C) [3BP-3565]	> 15 min	> 8 pkd	
Ac-VYCE[dP]DWLTWAC-NH2 (linker 3-12 via mXylylene; SMILES CC(=O)N[C@H](C(=O)N[C@@H](Cc1ccc(O)cc1)C(=O)N[C@H]1CSCc2cccc(c2)CSC[C@@H](C(N)=O)NC(=O)[C@H](C)NC(=O)[C@H](Cc2c[nH]c3ccccc23)NC(=O)[C@H]([C@@H](C)O)NC(=O)[C@H](CC(C)C)NC(=O)[C@H](Cc2c[nH]c3ccccc23)NC(=O)[C@H](CC(=O)O)NC(=O)[C@H]2CCCN2C(=O)[C@H](CCC(=O)O)NC1=O)C(C)C) [3BP-3282]	> 15 min	> 8 pkd	
{DOTA}-QCE[dP]D[Phe(3-NHCO(CH2)3SO2NH2)]LTWSC-NH2 (linker 2-11 via mXylylene; SMILES CC(C)C[C@@H]1NC(=O)[C@H](Cc2cccc(NC(=O)CCCS(N)(=O)=O)c2)NC(=O)[C@H](CC(=O)O)NC(=O)[C@H]2CCCN2C(=O)[C@H](CCC(=O)O)NC(=O)[C@@H](NC(=O)[C@H](CCC(N)=O)NC(=O)CN2CCN(CC(=O)O)CCN(CC(=O)O)CCN(CC(=O)O)CC2)CSCc2cccc(c2)CSC[C@@H](C(N)=O)NC(=O)[C@H](CO)NC(=O)[C@H](Cc2c[nH]c3ccccc23)NC(=O)[C@H]([C@@H](C)O)NC1=O) [3BP-4453]	> 15 min		
{DOTA-4Amb}-DCE[dP]DWLTW[Dap]C-NH2 (lactam 10-1; linker 2-11 via mXylylene; SMILES CC(C)C[C@@H]1NC(=O)[C@H](Cc2c[nH]c3ccccc23)NC(=O)[C@H](CC(=O)O)NC(=O)[C@H]2CCCN2C(=O)[C@H](CCC(=O)O)NC(=O)[C@@H]2CSCc3cccc(c3)CSC[C@@H](C(N)=O)NC(=O)[C@H](CNC(=O)C[C@H](NC(=O)c3ccc(CNC(=O)CN4CCN(CC(=O)O)CCN(CC(=O)O)CCN(CC(=O)O)CC4)cc3)C(=O)N2)NC(=O)[C@H](Cc2c[nH]c3ccccc23)NC(=O)[C@H]([C@@H](C)O)NC1=O) [3BP-4261]			> 8 pic50
{DOTA-3Amb}-DCE[dP]DWLTW[Dap]C-NH2 (lactam 10-1; linker 2-11 via mXylylene; SMILES CC(C)C[C@@H]1NC(=O)[C@H](Cc2c[nH]c3ccccc23)NC(=O)[C@H](CC(=O)O)NC(=O)[C@H]2CCCN2C(=O)[C@H](CCC(=O)O)NC(=O)[C@@H]2CSCc3cccc(c3)CSC[C@@H](C(N)=O)NC(=O)[C@H](CNC(=O)C[C@H](NC(=O)c3cccc(CNC(=O)CN4CCN(CC(=O)O)CCN(CC(=O)O)CCN(CC(=O)O)CC4)c3)C(=O)N2)NC(=O)[C@H](Cc2c[nH]c3ccccc23)NC(=O)[C@H]([C@@H](C)O)NC1=O) [3BP-4260]			> 8 pic50
{DOTA-APAc″}-DCE[dP]DWLTW[Dap]C-NH2 (lactam 10-1; linker 2-11 via mXylylene) [3BP-4254]			> 8 pic50
{DOTA-Cmp}-DCE[dP]DWLTW[Dap]C-NH2 (lactam 10-1; linker 2-11 via mXylylene; reading uncertain) [3BP-4259]			> 8 pic50
{DOTA-APAc″}-VYCE[dP]D[Af3(MSAc)]LTWSC-NH2 (linker 3-12 via mXylylene) [3BP-4242]			> 8 pic50
{GaDOTA-PPAc}-QCE[dP]D[Phe(3-NHCO(CH2)3SO2NH2)]LTWSC-NH2 (linker 2-11 via mXylylene; also: gallium in DOTA, also called natGa-DPI-4452) [3BP-4529]	> 15 min		
{DOTA-PPAc}-QCE[dP]D[Af3(4SaPy2Ac)]LTWSC-NH2 (linker 2-11 via mXylylene) [3BP-4790]	> 15 min		
{DOTA-PPAc}-DCE[dP]DWLTW[Dap]C-NH2 (lactam 10-1; linker 2-11 via mXylylene) [3BP-4255]			> 8 pic50
{DOTA-4Amc}-DCE[dP]DWLTW[Dap]C-NH2 (lactam 10-1; linker 2-11 via mXylylene; reading uncertain) [3BP-4258]			> 8 pic50
{DOTA-PPAc}-QCE[dP]D[Af3(Hsfu)]LTWSC-NH2 (linker 2-11 via mXylylene) [3BP-4788]	> 15 min		
{DOTA-APAc″}-VYCE[dP]D[Af3(Iva)]LTWSC-NH2 (linker 3-12 via mXylylene) [3BP-4236]			> 8 pic50
{DOTA-APAc″}-VYCE[dP]D[Af3(Prp)]LTWSC-NH2 (linker 3-12 via mXylylene) [3BP-4235]			> 8 pic50
{DOTA}-QCE[dP]D[Aph(SaPr)″]LTWSC-NH2 (linker 2-11 via mXylylene; also: Ga complexed in DOTA) [3BP-4602]	> 15 min		
{DOTA-Inp′}-DCE[dP]DWLTW[Dap]C-NH2 (lactam 10-1; linker 2-11 via mXylylene) [3BP-4256]			> 8 pic50
{DOTA}-DCE[dP]DWLTW[Dap]C-NH2 (lactam 10-1; linker 2-11 via mXylylene; SMILES CC(C)C[C@@H]1NC(=O)[C@H](Cc2c[nH]c3ccccc23)NC(=O)[C@H](CC(=O)O)NC(=O)[C@H]2CCCN2C(=O)[C@H](CCC(=O)O)NC(=O)[C@@H]2CSCc3cccc(c3)CSC[C@@H](C(N)=O)NC(=O)[C@H](CNC(=O)C[C@H](NC(=O)CN3CCN(CC(=O)O)CCN(CC(=O)O)CCN(CC(=O)O)CC3)C(=O)N2)NC(=O)[C@H](Cc2c[nH]c3ccccc23)NC(=O)[C@H]([C@@H](C)O)NC1=O) [3BP-4253]			> 8 pic50
{DOTA-APAc″}-VYCE[dP]D[Af3(HO-Succinyl)]LTWSC-NH2 (linker 3-12 via mXylylene) [3BP-4237]			> 8 pic50
